Laboratory results published in the supplement of paper PMC10724198.
± gives the standard deviation of the averaged measurements.

Tested on: Saccharomyces cerevisiae
Test: protein stability index of tFT-peptide fusion (C-terminal peptide) (PSI (0-1 scale)); higher = more stable (slower turnover)
Conditions: genetic background: wild type; temperature: 30 C
Experimental: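 Multiplexed protein stability (MPS) profiling in S. cerevisiae. Random 12-aa peptides (tFT-X12 library) are fused to the C-terminus of a sfGFP-mCherry tandem fluorescent timer, after mCherry and a GGGS linker. Cells are FACS-sorted into 8 mCherry/sfGFP bins and deep-sequenced. The protein stability index (PSI) is the read-weighted bin average, scaled from 0 (unstable) to 1 (stable). Only peptides with >10 reads are reported; cells were grown at 30 °C in SC-His with glucose.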
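Note: PSI is a weighted mean of sequencing reads over stability bins, variants kept only with over 10 reads, mCherry proximal and sfGFP distal, peptide attached via GGGS linker.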

Sequence | protein stability index
FFSFWVGATTIE | 0.70044 ± 0.00014
FFVAFGSWFGFL | 0.677 ± 0.099
FFVRGCLCLSDR | 0.693 ± 0.024
FFVSHLLRFAIK | 0.555 ± 0.0089
FGAIREVFYIRL | 0.662 ± 0.018
FGCGVADLERCL | 0.686 ± 0.013
FGDLAVFFAFLL | 0.564 ± 0.0069
FGESGSGSKRCG | 0.701 ± 0.12
FGFLSVSPLLSV | 0.642 ± 0.016
FGGEGGEEMAGG | 0.789 ± 0.034
FGGGLGGGVVLV | 0.69158 ± 0.00021
FGRFCYELLCGT | 0.541 ± 0.056
FGSDQFVCRLWS | 0.729 ± 0.048
FGVALGLRACAG | 0.668 ± 0.059
FGVVGAVGWRLR | 0.638 ± 0.03
FGYSGCVAKTGL | 0.658 ± 0.049
FHSSDLCGPVTS | 0.67 ± 0.025
FIKSRRLCCVNL | 0.663 ± 0.032
FILLLPSPPPAP | 0.618 ± 0.034
FITRATRESRIG | 0.694 ± 0.0073
FKKMTNVIKGNN | 0.689 ± 0.016
FKLSRTDSWMFT | 0.712 ± 0.01
FKPKAGCSNFAK | 0.696 ± 0.025
FKSCSLHCSRCS | 0.682 ± 0.12
FKWSGGGRGVGP | 0.679 ± 0.08

Sequence | protein stability index
FLFFLLLYVFFC | 0.498 ± 0.048
FLGAVVGVGLVG | 0.658 ± 0.053
FLGECSLLSGFL | 0.694 ± 0.033
FLGGSRVGRGDG | 0.6943 ± 0.0053
FLGLFHTVKKWQ | 0.684 ± 0.06
FLGLSYYRLPVG | 0.606 ± 0.046
FLIFSLSFCVLS | 0.6713 ± 0.0031
FLLSLLAFRFFL | 0.478 ± 0.04
FLLTVFPPLFFP | 0.704 ± 0.011
FLLVHIFSLFCL | 0.547 ± 0.013
FLLYGWTRPSCQ | 0.735 ± 0.062
FLPRRLCVRWRG | 0.684 ± 0.065
FLPWPSYPTPGP | 0.784 ± 0.018
FLQSRGWVCNHL | 0.655 ± 0.038
FLSALLALPASP | 0.698 ± 0.0064
FLSARVSSSLLL | 0.639 ± 0.035
FLSGVGSHLTGP | 0.653 ± 0.019
FLSLAAPQSGGA | 0.693 ± 0.027
FLSRCSVRPVTY | 0.668 ± 0.021
FLSSFVSNHVFW | 0.7914 ± 0.0032
FLTSPFIITRMP | 0.593 ± 0.071
FLVPTYISPFSF | 0.65 ± 0.027
FLWLRLLEAFWF | 0.603 ± 0.032
FMLCCFPCWCVL | 0.6127 ± 0.0041
FMRGQCWLRGCE | 0.672 ± 0.016

Sequence | protein stability index
FNGANEDCDLGV | 0.665 ± 0.12
FNNTSFALRSQA | 0.741 ± 0.029
FPAMVRVDTCGV | 0.673 ± 0.059
FPAPSPPFRLPP | 0.748 ± 0.025
FPAYRPARLTPA | 0.606 ± 0.033
FPFVVVISSSGE | 0.693 ± 0.23
FPGFHPIFPPPL | 0.664 ± 0.093
FPHSPPFIPHPP | 0.647 ± 0.021
FPLDNIALQSFP | 0.774 ± 0.099
FPLPPFPLTPPP | 0.64 ± 0.054
FPLQSFCYFVPI | 0.597 ± 0.0015
FPPRPLPFCSPA | 0.643 ± 0.0046
FPPVPLVTDTFT | 0.675 ± 0.034
FPPVVSSLPPPS | 0.686 ± 0.14
FPRGPLPPAPSP | 0.6556 ± 0.006
FPRPHPTPLPPG | 0.689 ± 0.013
FPRSCETPARAL | 0.6607 ± 0.0043
FPRSMPSPPSSE | 0.623 ± 0.035
FPRSSGRTVNCV | 0.648 ± 0.0084
FPSASPPFLPTP | 0.705 ± 0.037
FPSPPHALPTFP | 0.669 ± 0.071
FPSSRGLGGTMG | 0.658 ± 0.017
FPSTPRPPLPPP | 0.668 ± 0.014
FQPTYCVHKQNK | 0.722 ± 0.024
FRCFDAQRLGGV | 0.6858 ± 0.002

Sequence | protein stability index
FRDPTVLCCLHI | 0.515 ± 0.055
FRMNEVSWDVVS | 0.675 ± 0.032
FRRGGVERGVEG | 0.723 ± 0.026
FRSFGYSGSMLA | 0.6902 ± 0.0013
FRSFLSKLNGLF | 0.636 ± 0.03
FRSGRLSPPAPS | 0.692 ± 0.0028
FRSRGPVGMGAS | 0.686 ± 0.1
FRYICYSRPVMR | 0.684 ± 0.14
FSCEVSFAGLIV | 0.6 ± 0.012
FSFFPLLARYFF | 0.499 ± 0.0052
FSGLELRVGCGA | 0.732 ± 0.086
FSGRRGCFSSYI | 0.653 ± 0.037
FSLLLSFPCSYL | 0.601 ± 0.021
FSLLSFLLPLFP | 0.787 ± 0.12
FSNSSASPPSLS | 0.664 ± 0.068
FSPDSDFTRCAP | 0.701 ± 0.002
FSPPPLPAASPS | 0.664 ± 0.071
FSPYLYNIRTSL | 0.612 ± 0.024
FSRAFLDRVIVS | 0.713 ± 0.04
FSRRQLLCLPHP | 0.677 ± 0.0083
FSRSDREIFPRN | 0.585 ± 0.07
FSRSGIRLLGVA | 0.59 ± 0.021
FSSARSPLLSRL | 0.705 ± 0.041
FSSFCFFLPPLN | 0.666 ± 0.034
FSSFVVVGCWPR | 0.625 ± 0.027

Sequence | protein stability index
FSSPLSSPSPLY | 0.6834 ± 0.0059
FSSSPGRSFRTV | 0.726 ± 0.0091
FSVFFSPQRGCM | 0.759 ± 0.1
FTERVVEKFVLY | 0.633 ± 0.01
FTPDFTPKGSLS | 0.791 ± 0.088
FTPSSPPLPLLP | 0.655 ± 0.11
FVASEFEVRLWR | 0.769 ± 0.01
FVCLRWAVGLGG | 0.6204 ± 0.0013
FVFGECRGWALV | 0.76 ± 0.046
FVFSMDAFRSGL | 0.665 ± 0.045
FVGDPRRLSLPI | 0.761 ± 0.14
FVGPAWLGVRSC | 0.659 ± 0.012
FVGVGLVRVVGW | 0.618 ± 0.018
FVGWGLGVGTHD | 0.679 ± 0.0054
FVKQSHYCLFHL | 0.634 ± 0.011
FVLISSPLLRSF | 0.623 ± 0.017
FVLPLAPAGIAS | 0.5817 ± 0.0038
FVSRLWKIPTES | 0.583 ± 0.034
FVVVLSPLVILQ | 0.5344 ± 0.0049
FVWSGVGCWSEA | 0.701 ± 0.0076
FWAWEGCTRALM | 0.681 ± 0.07
FWGCFVWFCVCG | 0.509 ± 0.023
FWGPVWNVSWGV | 0.695 ± 0.019
FWSRGANGGVLV | 0.6775 ± 0.0037
FYPHFCAHTRPH | 0.7265 ± 0.0054

Sequence | protein stability index
FYSPSAPSPFFL | 0.797 ± 0.052
GADSWFGVVDVC | 0.75 ± 0.1
GAEHGVRTTAVT | 0.658 ± 0.014
GAEKEPEPRRLA | 0.699 ± 0.06
GAGGVWGGGQAG | 0.696 ± 0.041
GAGLGGGRGRRW | 0.68617 ± 0.00065
GAGRLGGDRVVG | 0.698 ± 0.037
GAGVEIGKSRYR | 0.716 ± 0.074
GAKCLFVSGGGI | 0.6804 ± 0.0047
GALYGARCNFEL | 0.72017 ± 0.00015
GAMLAGRQGWGL | 0.679 ± 0.018
GAPPLAPTPPPP | 0.745 ± 0.024
GAPPRPKTGRTF | 0.7118 ± 0.00075
GAPRESSEGRAQ | 0.725 ± 0.095
GAPVGRRPGRDR | 0.703 ± 0.035
GAREHGSNDYGP | 0.635 ± 0.036
GARSARVWARAK | 0.664 ± 0.022
GARVRIRVNDKK | 0.677 ± 0.021
GASPLPSPADHL | 0.717 ± 0.14
GATGGACGVWAG | 0.668 ± 0.048
GAVRGDRLTHTG | 0.734 ± 0.028
